From publication PMC2824606

Target: yHsp90-Y24F, bacterially expressed and purified (N-terminally His6-tagged, pRSETA) (Saccharomyces cerevisiae) (UniProt P02829)
Test: ITC

## Aha1 used for the in vitro binding constants (from UniProt Q12449 1-350) (natural protein)
  Kd: 1800 nM
